# Measured values from US20230106131A1 (OHIO STATE INNOVATION FOUNDATION, published 2023).
# Numbered stars: 1 amine (or outer) side, 2 acyl side, 3 side chain; on linkers, the order of the positions; unused ones are H or OH. Bridge positions count the residues as written; N and C are the ends. Square brackets hold non-standard residues; d marks the D form. Side chains are listed from the residue outwards. Ends that are not written are not given here. * marks the point of attachment. aminooxyacetyl = aminooxyacetyl (from Boc-aminooxyacetyl acylation of Lys side-chain amine), NOCC(=O)*; 2Nal = N[C@@H](Cc1ccc2ccccc2c1)C(=O)O; mXylylene = c1cc(C[*:1])cc(C[*:2])c1; CH2COCH2 = O=C(C[*:1])C[*:2]; hCys = N[C@@H](CCS)C(=O)O; AEEA = NCCOCCOCC(=O)O
# B1: peptide 2 (PDI with homocysteine at Glu-4 and Ala-8, stapled with DCA, FITC-labeled) (peptide)
# peptide: LTFXHYWXQLTS
# modifications: not fully specified; homocysteine at 4 and 8, joined by a 1,3-dichloroacetone (DCA) staple; FITC label; the rest of the structure only in drawing CHEM-US-00019
# notes: X stands for homocysteine; also called 3-1-1-DCA
# B2: peptide 5 (DCA-stapled peptide 2 conjugated to CPP9 through an oxime, stereoisomer 2, unlabeled) (peptide)
# peptide 1: LTF[hCys]HYW[hCys]QLTS
# peptide 2: [dF][2Nal]R[dR]R[dR]Q([AEEA-Lys-aminooxyacetyl])
# modifications: thioether (positions not given here) via CH2COCH2; not fully specified (bridges); also: oxime stereoisomer 2 (peak 2), Z/E not determined, further groups not given here, head-to-tail to a chain's N/C-terminus
# notes: also called 3-1-1-DCA-CP9 peak2
# B3: peptide 6, Ac-LTFCHYWCQLTS-miniPEG-K(FITC)-NH2, stapled (peptide)
# peptide: Ac-LTFCHYWCQLTS-{AEEA-K(FITC)-NH2}
# modifications: bridge 4-8; not fully specified (bridges); printed as Ac-LTFCHYWCQLTS-miniPEG-K(FITC)-NH
# notes: No CPP
# B4: peptide 7, Ac-LTFCHYWCQLTS-miniPEG-K(FITC)-NH2, stapled with BBA-CPP9 (peptide)
# peptide 1: LTFCHYWCQLTS
# peptide 2: FXRRRRQ
# modifications: head-to-tail cyclic; D-Phe at 1, L-2-naphthylalanine at 2, D-Arg at 4 and 6; miniPEG-Lys linker, with the Lys side chain acylated by the BBA staple; N-terminal acetyl; Cys 4 and Cys 8 joined by a 3,5-dimethylbenzoyl (BBA) staple that carries CPP9; C-terminal miniPEG-Lys(FITC) amide
# B5: peptide 11, Ac-ETFCHYWCQLTS-miniPEG-K(FITC)-NH2, stapled with BBA-CPP9 (peptide)
# peptide 1: ETFCHYWCQLTS
# peptide 2: FXRRRRQ
# modifications: head-to-tail cyclic; D-Phe at 1, L-2-naphthylalanine at 2, D-Arg at 4 and 6; miniPEG-Lys linker, with the Lys side chain acylated by the BBA staple; N-terminal acetyl; Cys 4 and Cys 8 joined by a 3,5-dimethylbenzoyl (BBA) staple that carries CPP9; C-terminal miniPEG-Lys(FITC) amide
# B6: peptide 13, Ac-EETFCHYWCQLTS-miniPEG-K(FITC)-NH2, stapled with BBA-CPP9 (peptide)
# peptide 1: EETFCHYWCQLTS
# peptide 2: FXRRRRQ
# modifications: head-to-tail cyclic; D-Phe at 1, L-2-naphthylalanine at 2, D-Arg at 4 and 6; miniPEG-Lys linker, with the Lys side chain acylated by the BBA staple; N-terminal acetyl; Cys 5 and Cys 9 joined by a 3,5-dimethylbenzoyl (BBA) staple that carries CPP9; C-terminal miniPEG-Lys(FITC) amide
# B7: peptide 4 (DCA-stapled peptide 2 conjugated to CPP9 through an oxime, stereoisomer 1, unlabeled) (peptide)
# peptide 1: LTF[hCys]HYW[hCys]QLTS
# peptide 2: [dF][2Nal]R[dR]R[dR]Q([AEEA-Lys-aminooxyacetyl])
# modifications: thioether (positions not given here) via CH2COCH2; not fully specified (bridges); also: oxime stereoisomer 1 (peak 1), Z/E not determined, further groups not given here, head-to-tail to a chain's N/C-terminus
# notes: Peptides 4 and 5 are the two isomers separated by HPLC; also called 3-1-1-DCA-CP9 peak1
# B8: peptide 3 (PDI with homocysteine at His-5 and Gln-9, stapled with DCA, FITC-labeled) (peptide)
# peptide: LTFEXYWAXLTS
# modifications: not fully specified; homocysteine at 5 and 9, joined by a 1,3-dichloroacetone (DCA) staple; FITC label; the rest of the structure only in drawing CHEM-US-00020
# notes: X stands for homocysteine
# Experiments:
# [1] = molecular target: T1, GST-MDM2 (human MDM2 residues 17-125) (human, UniProt Q00987 17-125); test: direct binding of the FITC-labeled peptide to MDM2
# T1 construct: range 17-125; No removal of GST is reported; not shown: glutathione S-transferase (GST) tag encoded by vector pGEX-6P-2
# [2] = molecular target: T1, GST-MDM2 (human MDM2 residues 17-125); test: direct binding of the FITC-labeled peptide to MDM2; remark: listed apart in the source
# [3] = molecular target: T1, GST-MDM2 (human MDM2 residues 17-125); test: fluorescence anisotropy competition with FITC-labeled peptide 1 for MDM2
# [4] = molecular target: T1, GST-MDM2 (human MDM2 residues 17-125); test: ratio of KD values of FITC-labeled peptides
# [5] = molecular target: T1, GST-MDM2 (human MDM2 residues 17-125); test: direct binding of the FITC-labeled peptide to MDM2 (the text differs from Table 7)
binder,measurement,setting,value
"Ac-EETFCHYWCQLTS-{AEEA-K(FITC)-NH2} (linker 5-9 via mXylylene, No CPP) [peptide 12, Ac-EETFCHYWCQLTS-miniPEG-K(FITC)-NH2, xylene-stapled]",Kd,[1],187 nM
B1,Kd,[2],144 nM
B2,IC50,[3],201 nM
B3,Kd,[1],190 nM
same,fold decrease of MDM2-binding affinity against peptide 1,[4],~2.5 fold
"Ac-ETFCHYWCQLTS-{AEEA-K(FITC)-NH2} (linker 4-8 via mXylylene, No CPP) [peptide 10, Ac-ETFCHYWCQLTS-miniPEG-K(FITC)-NH2, xylene-stapled]",Kd,[1],36 nM
same,fold improvement of binding affinity against peptide 6,[4],5 fold
B4,Kd,[1],~300 nM
same,fold decrease of MDM2 binding affinity against peptide 6,[4],~2 fold
B5,Kd,[1],225 nM
same,fold decrease of MDM2 binding affinity against peptide 10,[4],6 fold
B6,Kd,[1],365 nM
B7,IC50,[3],220 nM
"Ac-LTF[hCys]HYW[hCys]QLTS-{AEEA-K(FITC)-NH2} (bridge 4-8; not fully specified (bridges), No CPP) [peptide 8, Ac-LTFhCHYWhCQLTS-miniPEG-K(FITC)-NH2, stapled]",Kd,[1],15 nM
same,fold improvement of MDM2 binding affinity against peptide 1,[4],5 fold
same,Kd,[5],14 nM
B8,Kd,[2],171 nM
